Test results reported in patent US20040058366, “Novel clock gene bmal2” (published 2004).

Tests used:
[1] = molecular target: cBMAL1-cCLOCK heterodimer (Gallus gallus, UniProt Q9I8T7;Q8QGQ6 Q9I8T7:1-633,Q8QGQ6:1-875); assay: EMSA; two or three specific complexes; 7.5 mM MgCl2, 100 mM KCl, pH 7.6, 23 C; details: tags: TNT-T7 coupled transcription/translation; label: 32P; within a 39 bp EcoRI fragment excised from pCR2.1
Description: (§1) For preparation of the probe, oligonucleotides [cP2E1-S: 5′-GTGTCACACGTGAGGCTTA-3′ (Seq. ID No. 59) and cP2E1-AS: 5′-TAAGCCTCACGTGTGACAC-3′ (Seq. ID No. 60)] were synthesized that correspond to the E-box sequence and its flanking sequences within a putative promoter/enhancer region of cPer2 gene. These oligonucleotides synthesized were annealed together and subcloned into a pCR2.1 vector using TOPO-TA cloning kit (Invitrogen, Calif.), from which a 39 bp fragment was excised with a restriction enzyme EcoRI and used. The above-mentioned cBMAL1, cBMAL2 and cCLOCK were prepared by being transcribed and translated in vitro from an expression plasmid containing the cDNA of cBmal1, cBmal2 or cClock with the aid of TNT-T7 Quick Coupled Transcription/Translation System (Promega). […]
(§2) 5 μL each of the protein mixtures thus obtained (BMAL1+BMAL2, BMAL1+CLOCK, BMAL2+CLOCK) was added with 32 μL of buffer [25 mM Hepes-KOH (pH 7.6), 100 mM KCl, 0.1 mM EDTA, 10% (v/v) glycerol, 7.5 mM MgCl₂, 1 mM DTT and 1 μg denatured salmon sperm DNA] containing a ³²P-labeled probe (33 fmoles, 1.3×10⁵ cpm) andwas incubated for 20 min at 23° C. After the incubation, each mixture was separated by a 6% polyacrylamide gel electrophoresis and analyzed similarly as in Example 7 using a FLA2000 bioimage analyzer (FUJI PHOTO FILM). […]

[2] = molecular target: T1, cBMAL2-cCLOCK heterodimer (Gallus gallus, UniProt Q8QGQ7;Q8QGQ6 Q8QGQ7:1-622,Q8QGQ6:1-875); assay: as above; details: tags: TNT-T7 coupled transcription/translation; label: 32P; within a 39 bp EcoRI fragment excised from pCR2.1
T1 sequence 1: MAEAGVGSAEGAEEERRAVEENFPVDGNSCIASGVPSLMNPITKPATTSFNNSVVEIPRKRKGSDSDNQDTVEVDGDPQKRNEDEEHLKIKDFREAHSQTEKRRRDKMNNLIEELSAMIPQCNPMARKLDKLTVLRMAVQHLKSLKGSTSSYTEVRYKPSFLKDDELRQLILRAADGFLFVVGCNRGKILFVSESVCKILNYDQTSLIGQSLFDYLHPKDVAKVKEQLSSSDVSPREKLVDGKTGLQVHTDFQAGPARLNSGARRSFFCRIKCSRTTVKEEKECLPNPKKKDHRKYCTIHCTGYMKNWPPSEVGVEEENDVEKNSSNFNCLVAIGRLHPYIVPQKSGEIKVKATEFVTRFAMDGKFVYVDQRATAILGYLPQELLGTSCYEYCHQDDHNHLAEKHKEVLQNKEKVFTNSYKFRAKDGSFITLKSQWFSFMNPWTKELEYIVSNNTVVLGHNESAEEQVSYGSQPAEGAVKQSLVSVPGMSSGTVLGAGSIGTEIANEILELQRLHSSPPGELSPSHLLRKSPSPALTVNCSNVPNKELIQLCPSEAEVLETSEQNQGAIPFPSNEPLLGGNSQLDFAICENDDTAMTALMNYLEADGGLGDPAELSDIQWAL
T1 sequence 2: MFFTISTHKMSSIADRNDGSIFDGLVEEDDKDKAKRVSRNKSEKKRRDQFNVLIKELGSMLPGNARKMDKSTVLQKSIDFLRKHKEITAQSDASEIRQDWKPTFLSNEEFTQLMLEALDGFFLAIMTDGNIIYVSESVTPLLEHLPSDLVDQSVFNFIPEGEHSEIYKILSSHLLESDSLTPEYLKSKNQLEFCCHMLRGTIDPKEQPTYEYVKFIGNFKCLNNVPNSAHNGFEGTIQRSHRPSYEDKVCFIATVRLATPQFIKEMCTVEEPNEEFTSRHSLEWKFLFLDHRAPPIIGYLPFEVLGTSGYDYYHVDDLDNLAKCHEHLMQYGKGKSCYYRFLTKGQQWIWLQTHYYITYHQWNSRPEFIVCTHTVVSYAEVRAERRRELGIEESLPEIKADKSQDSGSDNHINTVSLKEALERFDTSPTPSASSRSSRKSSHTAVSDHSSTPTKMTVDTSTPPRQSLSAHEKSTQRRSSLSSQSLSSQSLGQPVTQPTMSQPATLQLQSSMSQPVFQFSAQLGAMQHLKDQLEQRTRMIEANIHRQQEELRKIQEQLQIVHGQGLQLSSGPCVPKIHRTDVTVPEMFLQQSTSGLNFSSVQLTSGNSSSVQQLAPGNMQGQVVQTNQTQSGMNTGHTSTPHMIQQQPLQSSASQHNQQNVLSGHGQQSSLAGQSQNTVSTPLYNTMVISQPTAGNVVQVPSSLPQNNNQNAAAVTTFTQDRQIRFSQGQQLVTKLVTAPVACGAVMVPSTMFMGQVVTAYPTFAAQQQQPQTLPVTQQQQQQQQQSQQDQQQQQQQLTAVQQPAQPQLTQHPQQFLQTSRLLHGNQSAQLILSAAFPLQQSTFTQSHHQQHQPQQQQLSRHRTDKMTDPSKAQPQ
Description: as §1, §2

cBMAL1 = cBMAL1 (Gallus gallus, UniProt Q9I8T7 Q9I8T7:1-633); assay: EMSA; no specific band with cBMAL1 alone; details: label: 32P; within a 39 bp EcoRI fragment excised from pCR2.1
cBMAL1, sequence (Q9I8T7 whole entry, the tested form may be a part, one chain of several): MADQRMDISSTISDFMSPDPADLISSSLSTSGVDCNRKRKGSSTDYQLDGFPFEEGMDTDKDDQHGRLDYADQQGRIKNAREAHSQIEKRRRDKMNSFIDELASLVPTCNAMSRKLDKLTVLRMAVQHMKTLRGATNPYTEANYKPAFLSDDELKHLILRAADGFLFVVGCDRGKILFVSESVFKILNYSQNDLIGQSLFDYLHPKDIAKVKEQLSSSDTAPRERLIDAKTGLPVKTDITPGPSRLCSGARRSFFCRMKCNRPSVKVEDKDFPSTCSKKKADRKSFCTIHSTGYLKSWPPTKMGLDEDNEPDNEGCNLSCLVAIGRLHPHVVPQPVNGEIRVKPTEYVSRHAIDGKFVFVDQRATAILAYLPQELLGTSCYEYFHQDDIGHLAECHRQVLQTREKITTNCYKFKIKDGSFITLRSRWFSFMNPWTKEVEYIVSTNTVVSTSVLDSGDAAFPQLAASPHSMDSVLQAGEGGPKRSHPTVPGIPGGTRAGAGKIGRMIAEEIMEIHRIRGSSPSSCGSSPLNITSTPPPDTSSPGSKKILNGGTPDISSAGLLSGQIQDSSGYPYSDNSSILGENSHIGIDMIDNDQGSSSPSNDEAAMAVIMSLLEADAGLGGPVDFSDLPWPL
Description: as §1, §2

cCLOCK = molecular target: T2, cCLOCK (Gallus gallus, UniProt Q8QGQ6 Q8QGQ6:1-875); assay: EMSA; no specific band with cCLOCK alone; details: label: 32P; within a 39 bp EcoRI fragment excised from pCR2.1
T2 sequence: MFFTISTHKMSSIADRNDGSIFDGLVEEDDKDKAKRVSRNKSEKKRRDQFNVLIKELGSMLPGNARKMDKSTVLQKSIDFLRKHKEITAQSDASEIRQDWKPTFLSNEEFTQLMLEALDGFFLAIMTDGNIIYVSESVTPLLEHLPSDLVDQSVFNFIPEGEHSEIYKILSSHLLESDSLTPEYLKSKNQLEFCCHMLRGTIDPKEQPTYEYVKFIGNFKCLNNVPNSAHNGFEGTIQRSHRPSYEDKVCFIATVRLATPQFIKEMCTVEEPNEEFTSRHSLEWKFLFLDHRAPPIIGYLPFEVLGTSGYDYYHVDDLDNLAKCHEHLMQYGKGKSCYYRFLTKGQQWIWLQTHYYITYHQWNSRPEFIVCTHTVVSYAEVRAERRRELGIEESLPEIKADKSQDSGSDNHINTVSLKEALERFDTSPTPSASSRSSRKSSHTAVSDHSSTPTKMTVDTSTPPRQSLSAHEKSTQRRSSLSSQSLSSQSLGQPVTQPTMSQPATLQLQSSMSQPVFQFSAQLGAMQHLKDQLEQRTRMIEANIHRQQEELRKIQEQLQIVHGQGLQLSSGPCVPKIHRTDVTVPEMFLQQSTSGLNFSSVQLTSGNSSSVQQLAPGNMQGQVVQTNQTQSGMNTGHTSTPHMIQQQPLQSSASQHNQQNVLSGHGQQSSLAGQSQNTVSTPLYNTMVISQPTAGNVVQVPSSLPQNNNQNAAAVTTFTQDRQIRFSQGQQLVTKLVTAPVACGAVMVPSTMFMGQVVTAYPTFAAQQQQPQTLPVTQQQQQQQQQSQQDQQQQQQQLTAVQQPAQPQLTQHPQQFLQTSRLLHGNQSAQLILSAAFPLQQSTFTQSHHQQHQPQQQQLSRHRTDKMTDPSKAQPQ
Description: as §1, §2

cBMAL2 = molecular target: T3, cBMAL2 (Gallus gallus, UniProt Q8QGQ7 SEQ:1-622); assay: EMSA; no specific band with cBMAL2 alone; details: label: 32P; within a 39 bp EcoRI fragment excised from pCR2.1
T3 sequence: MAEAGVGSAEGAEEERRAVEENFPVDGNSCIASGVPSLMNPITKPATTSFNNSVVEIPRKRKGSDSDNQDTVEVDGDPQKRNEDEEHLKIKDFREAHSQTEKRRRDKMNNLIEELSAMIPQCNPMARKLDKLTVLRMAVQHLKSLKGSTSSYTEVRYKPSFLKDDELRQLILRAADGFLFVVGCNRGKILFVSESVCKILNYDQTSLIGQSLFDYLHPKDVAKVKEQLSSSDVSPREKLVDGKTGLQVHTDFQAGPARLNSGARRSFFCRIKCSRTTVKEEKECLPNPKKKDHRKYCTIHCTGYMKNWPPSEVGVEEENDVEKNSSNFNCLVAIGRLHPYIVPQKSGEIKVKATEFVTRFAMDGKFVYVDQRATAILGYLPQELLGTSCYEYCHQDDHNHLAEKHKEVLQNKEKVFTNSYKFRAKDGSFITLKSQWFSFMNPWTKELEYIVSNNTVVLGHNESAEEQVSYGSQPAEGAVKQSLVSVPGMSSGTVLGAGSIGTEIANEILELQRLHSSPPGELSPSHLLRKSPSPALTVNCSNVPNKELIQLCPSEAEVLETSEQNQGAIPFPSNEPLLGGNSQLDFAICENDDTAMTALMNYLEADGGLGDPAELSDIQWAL
Description: as §1, §2

cBMAL1-cCLOCK heterodimer, sequence (Q9I8T7 whole entry, the tested form may be a part, one chain of several): as the sequence (Q9I8T7 whole entry, the tested form may be a part, one chain of several) above

B1: cPer2 E-box probe (dsDNA)
DNA 1: GTGTCACACGTGAGGCTTA
DNA 2: TAAGCCTCACGTGTGACAC
B1: binds [1]; binds [2]; no binding (cBMAL1). B1: no binding (cCLOCK); no binding (cBMAL2).
